# Target: BCG3185c (Mycobacterium tuberculosis (title); called a Bacillus Calmette-Guérin (BCG) protein)
# Assay: SEC
substance,measurement,value
BCG3185c (enzyme),stoichiometry N,3

# — publication doi:10.1101/2024.05.14.591795
